The chains are these.
B1: LIM domain and actin-binding protein 1 (Mus musculus), Q9ERG0-1 (parent)
chain: MESTPFNRRQWTSLSLRVTAKELSLVNKNKSSAIVEIFSKYQKAAEEANMERKKNNPESLPQHFRRGTLSVLKKKWENPVAGAEFHTDSLPNSSSEGGHTADYPPAEVTDKPAPGVRADREEHTQPKPRFGSRPEAVIQSRYPRSENSHDFKAQATESQKMENCLGDSRHEAEKPETSENTETSGKIEKYNVPLNRLKMMFEKGEHNQTKSLWTQSRNAGGRRLSENNCSLDDWEIGAGHLSSSAFNSEKNESKRNLELPRLSETSIKDRMAKYQAAVSKQSSPASYTNELKTSESKTHKWEQKENVPPGPEACSVHQEGSKVSTTENSLVALSVPAEDDTCNSQVKSEAQQPMHPKPLSPDARTSSLPESSPSKTAKKFQAPAKESCVECQKTVYPMERLLANQQVFHISCFRCSYCNNKLSLGTYASLHGRIYCKPHFNQLFKSKGNYDEGFGHKQHKDLWASKSDNEETLGRPAQPPNAGESPHSPGVEDAPIAKVGVLAASMEAKASSQREREDKPAETKKLRIAWPPPAELGGSGSALEEGIKVSKPKWPPEDDVCKTEAPEDVDLDLKKLRRSSSLKERSRPFTVAASFRTSSIKSPKASSPSLRKGWSESEQSEEFGGGIATMERKQTENARPSGEKENVGKSRWQGEEVPRSKDRSSFELESENFMENGANIAEDDNHVHAQQSPLEPEAPGWSGFVDTTAAKEFTTQNQKSQDVGFWEGEVVRELSVEEQIKRNRYYDEDEDEE
partner: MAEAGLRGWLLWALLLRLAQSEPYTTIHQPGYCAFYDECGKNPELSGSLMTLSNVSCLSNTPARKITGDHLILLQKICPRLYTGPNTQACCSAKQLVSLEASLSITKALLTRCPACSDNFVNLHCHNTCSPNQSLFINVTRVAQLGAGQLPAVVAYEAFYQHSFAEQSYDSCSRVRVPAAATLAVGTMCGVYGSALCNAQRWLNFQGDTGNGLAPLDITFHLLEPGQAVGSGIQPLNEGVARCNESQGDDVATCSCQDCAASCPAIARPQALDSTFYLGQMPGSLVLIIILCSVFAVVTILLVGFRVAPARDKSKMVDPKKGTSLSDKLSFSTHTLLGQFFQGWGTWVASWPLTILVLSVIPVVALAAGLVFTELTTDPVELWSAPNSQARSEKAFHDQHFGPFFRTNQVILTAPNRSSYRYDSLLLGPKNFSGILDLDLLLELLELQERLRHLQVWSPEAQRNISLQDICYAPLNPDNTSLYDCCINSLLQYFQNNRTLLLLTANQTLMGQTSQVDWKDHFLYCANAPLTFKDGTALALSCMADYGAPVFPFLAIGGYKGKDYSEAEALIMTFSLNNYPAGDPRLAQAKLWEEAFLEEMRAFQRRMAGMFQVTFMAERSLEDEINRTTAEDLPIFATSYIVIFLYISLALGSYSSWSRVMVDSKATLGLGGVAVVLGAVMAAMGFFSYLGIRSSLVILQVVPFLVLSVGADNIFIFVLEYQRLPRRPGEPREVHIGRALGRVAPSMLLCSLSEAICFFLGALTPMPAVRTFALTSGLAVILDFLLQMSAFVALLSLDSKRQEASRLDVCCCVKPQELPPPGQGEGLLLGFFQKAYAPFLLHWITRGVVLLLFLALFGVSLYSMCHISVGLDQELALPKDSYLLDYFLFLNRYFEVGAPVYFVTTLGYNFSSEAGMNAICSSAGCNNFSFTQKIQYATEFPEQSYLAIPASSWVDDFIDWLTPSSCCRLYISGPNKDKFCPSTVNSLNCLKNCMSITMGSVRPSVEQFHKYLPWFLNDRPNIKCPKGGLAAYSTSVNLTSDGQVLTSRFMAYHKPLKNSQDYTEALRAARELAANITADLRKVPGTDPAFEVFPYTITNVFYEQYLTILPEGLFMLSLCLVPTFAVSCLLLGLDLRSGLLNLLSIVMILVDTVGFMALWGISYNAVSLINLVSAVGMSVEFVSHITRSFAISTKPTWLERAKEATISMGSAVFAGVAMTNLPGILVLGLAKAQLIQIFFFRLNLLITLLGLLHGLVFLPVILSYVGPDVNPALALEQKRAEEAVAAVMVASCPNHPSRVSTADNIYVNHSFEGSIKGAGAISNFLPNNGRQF
B2: NPC1-like intracellular cholesterol transporter 1 (Homo sapiens), Q9UHC9-2 (parent)
chain: B1 partner

One test covers variants of B1. The following applies: with NPC1L1, Q9UHC9-2.
Turning to C164A;L165A;G166A, the “effect of a mutation on the interaction” value was “disrupting interaction”.

A further test covers variants of B1. The settings on record: with NPC1L1, Q9UHC9-2. The source holds these as a separate data set.
Consider C164A;L165A;G166A, for which the “effect of a mutation on the interaction” value was “disrupting interaction strength”.

The variants in a further test derive from B2. The settings on record: with Lima1, Q9ERG0-1.
Turning to Q1277A;K1278A;R1279A, the “effect of a mutation on the interaction” value was “disrupting interaction”.

The values are drawn from IntAct's records for PubMed 29880681.
